According to publication PMC10533412, “Phosphoantigens glue butyrophilin 3A1 and 2A1 to activate Vγ9Vδ2 T cells” (Nature, 2023):
Each block holds one binder with its values, some of them ahead of it.

Legend:
[1] = target: BTN3A1 B30.2 domain (human) (UniProt O00481)
[2] = target: BTN3A1 B30.2 domain, O00481; assay: ITC; details: chain shown with the change; with HMBPP
Chain of BTN3A1 B30.2 domain, O00481 (O00481 328-513): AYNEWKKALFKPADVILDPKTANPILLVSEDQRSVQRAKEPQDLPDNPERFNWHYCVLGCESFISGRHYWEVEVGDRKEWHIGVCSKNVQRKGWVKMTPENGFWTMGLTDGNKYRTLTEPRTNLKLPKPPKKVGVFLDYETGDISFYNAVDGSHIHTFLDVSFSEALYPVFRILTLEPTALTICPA

Chain of BTN3A1 B30.2 domain (human) (O00481 328-513): as above

AFM-SCFS binding force between a Vγ9Vδ2 T cell and a MIA PaCa-2 cell, without and with HMBPP treatment [1]: 1550 pN
B1: BTN2A1 B30.2 domain (domain or fragment)
chain: EELRWRRTFLHAVDVVLDPDTAHPDLFLSEDRRSVRRCPFRHLGESVPDNPERFDSQPCVLGRESFASGKHYWEVEVENVIEWTVGVCRDSVERKGEVLLIPQNGFWTLEMHKGQYRAVSSPDRILPLKESLCRVGVFLDYEAGDVSFYNMRDRSHIYTCPRSAFSVPVRPFFRLGCEDSPIFICPALTGANGVTVPEEGLTLHRVGTHQSL

Kd [2]: 189 nM
B2: BTN2A2 B30.2 domain, Q8WVV5 W374R; M506T (protein)
chain: EELRWRRTFLHAADVVLDPDTAHPELFLSEDRRSVRRGPYRQRVPDNPERFDSQPCVLGRESFASGKHYWEVEVENVMVWTVGVCRHSVERKGEVLLIPQNGFWTLEMFGNQYRALSSPERILPLKESLCRVGVFLDYEAGDVSFYNMRDRSHIYTCPRSAFTVPVRPFFRLGSDDSPIFICPALTGASGVTVPEEGLKLHRVGTHQSL
